Test [1] has as its target dopamine D2 receptor, long isoform, p.Ile212Phe variant (UniProt P14416). The test is described as follows: FRET or BRET; HEK293 cells 48 hours after transfection, in phosphate-buffered saline with 0.1 mM CaCl2 and 0.5 mM MgCl2, ~100,000 cells/well; quinpirole (20-minute stimulation) followed by coelenterazine h at room temperature; agonist-induced recruitment, expressed as percentage of maximum recruitment by D2-WT. (In general: In BRET a luciferase serves as donor, and the signal depends on an acceptor being close.)

Test [2] concerns the target dopamine D2 receptor, short isoform, p.Ile212Phe variant (UniProt P14416). The description is as above.

From paper PMC8049080 come the findings set out here.

The substance “arrestin3 (from UniProt P32121 1-409) (natural protein)” yielded a maximal recruitment, percent of that by D2L-WT in test [1] of 48%. The same substance registered a maximal recruitment, percent of that by D2S-WT in test [2] of 68%.
